B1: Cyanovirin-N, P81180 (parent)
chain: LGKFSQTCYNSAIQGSVLTSTCERTNGGYNTSSIDLNSVIENVDGSLKWQPSNFIETCRNTQLAGSSELAAECKTRAQQFVSTKINLDDHIANIDGTLKYE

Variants of: B1
Conditions: Nostoc ellipsosporum, pH 6, sodium phosphate 20 mM, transition: 2, reversible: yes(90%), structure 1IIY, whole UniProt chain shown; for denaturant m value / denaturant midpoint (higher = more stable): 25 °C, GdnHCl; for Tm / change of melting temperature, mutant - wild type (higher = more stable): Thermal

Variant	denaturant m value (CD) [kcal/mol/M]	denaturant midpoint (higher = more stable) (CD) [M]	denaturant m value (fluorescence) [kcal/mol/M]	denaturant midpoint (higher = more stable) (fluorescence) [M]	Tm (CD) [°C]	change of melting temperature, mutant - wild type (higher = more stable) (CD) [°C]
LGKFSQTCYNVAIQGSVLTATCERTNGGYNTSSIDLNSVIENVDGSLKWQGSNFIETCRNVQLAGSSELAAECKTRAQQFVSTKINLDDHIANIDGTLKYE [P51G S11V S20A T61V]	1.7	2.9	2.1	3	74.5	7.9
LGKFSQTCYNAAIQGSVLTATCERTNGGYNTSSIDLNSVIENVDGSLKWQGSNFIETCRNIQLAGSSELAAECKTRAQQFVSTKINLDDHIANIDGTLKYE [P51G S11A S20A T61I]	1.7	3.3	2.1	3.5	75.8	9.2
LGKFSQTCYNVAIQGSVLTATCERTNGGYNTSSIDLNSVIENVDGSLKWQGSNFIETCRNTQLAGSSELAAECKTRAQQFVSTKINLDDHIANIDGTLKYE [P51G S11V S20A]	2.6	2.8	2.6	2.8	69.8	3.2
LGKFSQTCYNIAIQGSVLTATCERTNGGYNTSSIDLNSVIENVDGSLKWQGSNFIETCRNTQLAGSSELAAECKTRAQQFVSTKINLDDHIANIDGTLKYE [P51G S11I S20A]	2	3.1				
LGKFSQTCYNAAIQGSVLTATCERTNGGYNTSSIDLNSVIENVDGSLKWQGSNFIETCRNTQLAGSSELAAECKTRAQQFVSTKINLDDHIANIDGTLKYE [P51G S11A S20A]	2.4	2.5			69.6	3
LGKFSQTCYNSAIQGSVLTSTCERTNGGYNTSSIDLNSVIENVDGSLKWQGSNFIETCRNTQLAGSSELAAECKTRAQQFVSTKINLDDHIANIDGTLKYE [P51G]	2.5	2.2	2.6	2.3	64.3	-2.3

Source: FireProtDB (doi:10.1021/bi201411c)
